Five substances from publication PMC8138769 can be followed below.

Test [1] concerns the target Ly49C natural killer domain (NKD), high-affinity mutant (V141K, S171G, E193G, R223K) (murine). In words: ITC. (In ITC the heat of successive injections is recorded.)
Test [2] has the same target. Nature of the test: AUC; sedimentation velocity, 20 °C, absorbance optics, 40,000 rpm; 4.2 μM Ly49C NKD, 3.7 μM peptide/MHC complex, and a mixture of the two; 10 mM HEPES pH 7.4, 150 mM NaCl, 3 mM EDTA, 0.005% surfactant P20.
Test [3] addresses H-2K^b (heavy chain with murine β2-microglobulin) (mouse | murine).

In the case of “H-2K^b in complex with the ovalbumin peptide (OVA; SIINFEKL) (from UniProt P01887) (peptide-MHC)”, in test [1], the dissociation constant Kd – broadly, the free concentration of one partner at which half of the binding sites on the other are occupied at equilibrium, for simple one-to-one binding – was found to be 1.9 µM; the dH is 2 kcal/mol; the stoichiometry N (in general, a count of units in the complex or per binding partner) is 1.

“H-2K^b presenting the MMTV gp70 peptide (MMTV; ANYDFICV) (from UniProt P01887 21-119) (peptide-MHC)”: in test [1], the Kd came out at 8 µM, the dH is 2.3 kcal/mol and the stoichiometry N is 1.

In the case of “Ly49C natural killer domain (NKD), high-affinity mutant (V141K, S171G, E193G, R223K) (domain or fragment)”, the stoichiometry N in test [2] was found to be 2.

Consider MMTV gp70 peptide (MMTV; ANYDFICV), for which the apparent Tm of the peptide/H-2K^b complex by differential scanning fluorimetry in test [3] is 54 °C.

ovalbumin peptide (OVA; SIINFEKL): in test [3], the apparent Tm of the peptide/H-2K^b complex by differential scanning fluorimetry came to 58 °C.
